In article PMC2615623 (Nucleic Acids Research, 2008):

Assays:
[1] = molecular target: T1, His-tagged human RNASEH2C (human, UniProt Q8TDP1 1-164); test: SEC
T1 sequence (looked up): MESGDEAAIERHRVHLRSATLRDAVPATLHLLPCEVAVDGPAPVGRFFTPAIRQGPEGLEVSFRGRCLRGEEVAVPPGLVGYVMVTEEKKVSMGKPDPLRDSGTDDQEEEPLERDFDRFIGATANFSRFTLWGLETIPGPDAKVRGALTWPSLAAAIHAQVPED

[2] = molecular target: T2, His-tagged human RNASEH2B (human, UniProt Q5TBB1 1-312); test: SEC
T2 sequence (looked up): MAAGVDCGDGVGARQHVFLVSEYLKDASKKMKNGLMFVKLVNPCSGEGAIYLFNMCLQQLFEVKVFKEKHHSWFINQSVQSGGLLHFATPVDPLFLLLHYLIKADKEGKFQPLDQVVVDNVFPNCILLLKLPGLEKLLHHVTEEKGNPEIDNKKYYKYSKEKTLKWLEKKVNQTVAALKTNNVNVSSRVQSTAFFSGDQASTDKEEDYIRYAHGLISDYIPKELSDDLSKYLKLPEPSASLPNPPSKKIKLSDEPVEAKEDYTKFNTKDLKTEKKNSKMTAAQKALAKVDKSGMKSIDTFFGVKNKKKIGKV

- stoichiometry N [1]: 1 A:B:C
- stoichiometry N [2]: 1 A:B:C
B1: His-tagged human RNASEH2A (natural protein, UniProt O75792 1-299, looked up)
chain: MDLSELERDNTGRCRLSSPVPAVCRKEPCVLGVDEAGRGPVLGPMVYAICYCPLPRLADLEALKVADSKTLLESERERLFAKMEDTDFVGWALDVLSPNLISTSMLGRVKYNLNSLSHDTATGLIQYALDQGVNVTQVFVDTVGMPETYQARLQQSFPGIEVTVKAKADALYPVVSAASICAKVARDQAVKKWQFVEKLQDLDTDYGSGYPNDPKTKAWLKEHVEPVFGFPQFVRFSWRTAQTILEKEAEDVIWEDSASENQEGLRKITSYFLNEGSQARPRSSHRYFLERGLESATSL
